Here are results for two molecules from article PMC11102866, “Nucleosome-bound NR5A2 structure reveals pioneer factor mechanism by DNA minor groove anchor competition”.

Data set [1] addresses T1, NR5A2 D159A (Homo sapiens, UniProt O00482 1-541, D159A). Briefly: EMSA; similar to wild type; EMSA: 20 mM Tris-HCl pH 7.5, 120 mM NaCl, 1 mM MgCl2, 10 uM ZnCl2, 1 mM DTT, 100 ug/ml BSA, room temperature, 30 min; 50 nM DNA or nucleosome. Conditions: protein: recombinant; tags: N-terminal His6-TEV, His6 removed with TEV protease. For orientation: A gel shift assay detects complexes by their altered migration in electrophoresis.

Another data set deals with NR5A2 wild type (Homo sapiens, UniProt O00482 1-541). As to the kind of experiment: EMSA; EMSA: 20 mM Tris-HCl pH 7.5, 120 mM NaCl, 1 mM MgCl2, 10 uM ZnCl2, 1 mM DTT, 100 ug/ml BSA, room temperature, 30 min; 50 nM DNA or nucleosome. The conditions noted are these: protein: recombinant; tags: N-terminal His6-TEV, His6 removed with TEV protease.
Data set [2] concerns the target T1, NR5A2 D159A. As to the kind of experiment: EMSA; slightly less than wild type, not significant; EMSA: 20 mM Tris-HCl pH 7.5, 120 mM NaCl, 1 mM MgCl2, 10 uM ZnCl2, 1 mM DTT, 100 ug/ml BSA, room temperature, 30 min; 50 nM DNA or nucleosome. Conditions: protein: recombinant; tags: N-terminal His6-TEV, His6 removed with TEV protease; blunt.

B1: 149 bp endogenous mouse DNA (dsDNA)
DNA 1: GGACTGGGACTTCTAAAACAAGACCTTAGTTAGGTGTGGTGCTGCATGCCTTTAATCTCAGCAGTCTGGAGGCAGAGACAGGGAGGTCTCTATGAGTTCAAGGCCAGCCTAATCTACACAGTGAGTTCCAGGACAGTCAGGGCTATAGA
DNA 2: TCTATAGCCCTGACTGTCCTGGAACTCACTGTGTAGATTAGGCTGGCCTTGAACTCATAGAGACCTCCCTGTCTCTGCCTCCAGACTGCTGAGATTAAAGGCATGCAGCACCACACCTAACTAAGGTCTTGTTTTAGAAGTCCCAGTCC
With B1, the binding result with NR5A2 D159A [1] and with NR5A2 wild type was “binds” throughout.

B2: 25 bp DNA with Nr5a2 consensus motif (dsDNA)
DNA 1: GAGAGAGTCAAGGCCATGGCTCACT
DNA 2: AGTGAGCCATGGCCTTGACTCTCTC
Take B2: in the data set with NR5A2 D159A [2], the binding result is “binds”.
